B1: peptide … (SEQ ID NO: 40) (peptide)
peptide: MHRSLLGRMKGA
modifications: not checked
B2: fd fusion phage carrying … (SEQ ID NO: 17) (peptide)
chain: ADGTLLGRMKLA
modifications: not checked
B3: fd fusion phage carrying … (SEQ ID NO: 15) (peptide)
chain: ADGSLLGRMKPA
modifications: not checked
B4: fd fusion phage carrying … (SEQ ID NO: 24) (peptide)
chain: ADGAHRSLLGRMKGA
modifications: not checked
B5: fd fusion phage carrying … (SEQ ID NO: 20) (peptide)
chain: ADGSRSSLLGRMKGA
modifications: not checked
B6: fd fusion phage carrying … (SEQ ID NO: 23) (peptide)
chain: ADGPRSSLLGRMKGA
modifications: not checked
B7: fd fusion phage carrying … (SEQ ID NO: 14) (peptide)
chain: ADGALLGRMKPA
modifications: not checked
B8: fd fusion phage carrying … (SEQ ID NO: 26) (peptide)
chain: ADGTQRSLLGRMKGA
modifications: not checked
B9: fd fusion phage carrying … (SEQ ID NO: 25) (peptide)
chain: ADGYQRSLLGRMKGA
modifications: not checked
B10: fd fusion phage carrying … (SEQ ID NO: 22) (peptide)
chain: ADGHRSSLLGRMKGA
modifications: not checked
B11: fd fusion phage carrying … (SEQ ID NO: 16) (peptide)
chain: ADGALLGRMKRA
modifications: not checked
B12: fd fusion phage carrying … (SEQ ID NO: 19) (peptide)
chain: ADRSLLGRMKGA
modifications: not checked

Target: T1, C-terminally truncated HBV core antigen (aa3-148) (hepatitis B virus), P03146
T1 chain: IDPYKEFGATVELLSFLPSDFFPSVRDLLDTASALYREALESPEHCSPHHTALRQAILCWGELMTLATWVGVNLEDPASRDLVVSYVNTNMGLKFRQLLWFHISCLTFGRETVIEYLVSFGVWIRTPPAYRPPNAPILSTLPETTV
Experiment: EDC/sulpho-NHS crosslinking, SDS-PAGE band shift

Q: B1 was tested. Which yield of the shifted (crosslinked) protein band did it give?
A: < 50%

Target: T2, HBV core antigen (hepatitis B virus), P03146
T2 chain: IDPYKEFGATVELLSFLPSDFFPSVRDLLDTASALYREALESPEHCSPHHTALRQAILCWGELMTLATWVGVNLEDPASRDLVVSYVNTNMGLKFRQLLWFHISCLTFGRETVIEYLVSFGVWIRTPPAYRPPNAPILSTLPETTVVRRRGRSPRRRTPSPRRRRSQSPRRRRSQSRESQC
Experiment: relative dissociation constant (KD^Rel), fd fusion phage with HBV core antigen in solution

Q: B2 was tested. Which Kd did it give?
A: 20 nM

Q: B3 was tested. Which Kd did it give?
A: 322 nM

Q: With B4 as the binder, how does the Kd read?
A: 0.94 nM

Q: For B5, which Kd is on record?
A: 1.96 nM

Q: How did the Kd turn out when B6 was run?
A: 0.84 nM

Q: How did the Kd turn out when B7 was run?
A: 767 nM

Q: For B8, which Kd is on record?
A: 0.84 nM

Q: With B9 as the binder, how does the Kd read?
A: 0.88 nM

Q: With B10 as the binder, how does the Kd read?
A: 1.4 nM

Q: For B11, which Kd is on record?
A: 181 nM

Q: Which Kd does the source give for B12 here?
A: 1.09 nM

Reference: patent publication US7226603
